In the DeepSol protein solubility set:

test: soluble on expression in E. coli; label from the status in PepcDB or PDB records

| Sequence | soluble on expression in E. coli |
| --- | --- |
| MSLSLLSKFSRGVPSPALAHIAKRTFSSVNFSQILRRPQNSSLRLRLVRNISNSNPLPKMTEAGKNIVLKRHDLIVKGAQDAREYRGLELTNGIRVLLVSDPTTDKSAAALDVKVGHLMDPWELPGLAHFCEHMLFLGTAKYPSENEYSKFLAAHAGSSNAYTSSDHTNYHFDVKPDQLPGALDRFVQFFLSPQFTESATEREVCAVDSEHSNNLNNDLWRFLQVDRSRSKPGHDYGKFGTGNKQTLLEDARKKGIEPRDALLQFHKKWYSSDIMTCCIVGKEPLNVLESYLGTLEFDAIENKKVERKVWEEFPYGPDQLAKRIDVVPIKDTRLVSISFPFPDLNGEFLSQPGHYISHLIGHEGPGSLLSELKRLGWVSSLQSDSHTQAAGFGVYNVTMDLSTEGLEHVDEIIQLMFNYIGMLQSAGPKQWVHDELAELSAVKFRFKDKEQPMTMAINVAASLQYIPFEHILSSRYLLTKYEPERIKELLSMLSPANMQVRVVSQKFKGQEGNTNEPVYGTEMKVTDISPETMKKYENALKTSHHALHLPEKNEYIATNFDQKPRESVKNEHPRLISDDGWSRVWFKQDDEYNMPKQETKLALTTPMVAQNPRMSLLSSLWLWCLSDTLAEETYNADLAGLKCQLESSPFGVQMRVSNRREAERHASLTLHVYGYDEKQALFAKHLANRMTNFKIDKTRFDVLFESLKRALTNHAFSQPYLLTQHYNQLLIVDKVWSKEQLLAVCDSVTLEDVQGFAKEMLQAFHMELFVHGNSTEKEAIQLSKELMDVLKSAAPNSRPLYRNEHNPRRELQLNNGDEYVYRHLQKTHDVGCVEVTYQIGVQNTYDNAVVGLIDQLIREPAFNTLRTNEALGYIVWTGSRLNCGTVALNVIVQGPKSVDHVLERIEVFLESVRKEIAEMPQEEFDNQVSGMIARLEEKPKTLSSRFRRFWNEIECRQYNFARREEEVALLKTIKKDDVLELFDKKIRKDAAERRKLAVFVHGKNEDQEAVNTIIKKNAESGKKEKEVLYSDQLRQFLPLYGRPIAAIDLKPIGVDPLEHQETTKSKY | not soluble |
| MTVQIPKLLFLHGFLQNGKVFSEKSSGIRKLLKKANVQCDYIDAPVLLEKKDLPFEMDDEKWQATLDADVNRAWFYHSEISHELDISEGLKSVVDHIKANGPYDGIVGFSQGAALSSIITNKISELVPDHPQFKVSVVISGYSFTEPDPEHPGELRITEKFRDSFAVKPDMKTKMIFIYGASDQAVPSVRSKYLYDIYLKAQNGNKEKVLAYEHPGGHMVPNKKDIIRPIVEQITSSLQEASE | soluble |
| MSLLLRMMGWKALVPSANPLQSVICVAPHTSNYDFLLGKLYYWSIGRKAGFLMKKEWFFFPLGPIFRAMGGIPIDRSKRGSTVEQVREFFQRHAVFNVAITPEGTRDYSPQWKTGFYRIAVGAGVPIQLAVIDYSYKEMSVFELFTPTGNEEADIAYIRSRYRASQARHPRNFAESEIEGHHHHHH | soluble |
| MATIPSVVREITLVGEQIFDHTQVVRAEIDRFVERFERNERHREFDGILRASHALVESSETPVEGLFDMGKMEHMTQCVDDITKKLQTLVEPKYQKEHDVYLEKVKEDQKKYVDVCREQAMNKMRSMTAHR | not soluble |
| MKLKIGIVCYPTVGGSGVVATELGKLLAERGHEIHFISSSMPFRLNKVYGNIYYHEVSVNQYSVFQYPPYDLALASKIAEVAKRERLDVLHAHYAVPHAVCAVLARQMVGELPIITTLHGTDITVLGYDPSLSDMIKFGIEQSDIVTAVSDALARQTYELLDVQATIHTVYNFVDERVYRRREAGHLRREYGIRDDERVVIHVSNFRKVKRVPDVVRAFAIVRRHVPAKLLLVGDGPEMTVVCRLVKELGLQDDVRFLGKQDKLEELYSISDVMMLLSEKESFGLVLLEAMACGVPCIGTAIGGIPEVIEDGKTGFLCPLGDVKEAARQAMALLTDCRLHAEMARQAVQTVERKFRSADIVGQYEQLYASLAARKVKR | not soluble |
| MSLKSFNEIIMKVKSKEMKKVAVAVAQDEPVLEAVRDAKKNGIADAILVGDHDEIVSIALKIGMDVNDFEIVNEPNVKKAALKAVELVSTGKADMVMKGLVNTATFLRSVLNKEVGLRTGKTMSHVAVFETEKFDRLLFLTDVAFNTYPELKEKIDIVNNSVKVAHAIGIENPKVAPICAVEVINPKMPSTLDAAMLSKMSDRGQIKGCVVDGPLALDIALSEEAAHHKGVTGEVAGKADIFLMPNIETGNVMYKTLTYTTDSKNGGILVGTSAPVVLTSRADSHETKMNSIALAALVAGNKEGHHHHHH | soluble |
| MDIGRAVRFLRKRQGWTQQQLADFSHTSKSNISNLENGNQGYSPAILEYLAKAFNCSVSQIFLLAENMDNEGNLLKDWQHMPIDVLFIQLPQEVQCQLKHLIFTLIDTKK | not soluble |
| MSDNKESKKISIEIDGKDYQALPNQSIIEVADANGIYIPRFCYHKKLSVAANCRMCLVDVEGARRASPACATPVMDGMKVKTRSEEALQMQKDVMEFLLINHPLDCPICDQGGECELQDIAMGYGNTTSEYLESKRTVEDPELGPLVATDMTRCILCTRCVRFGEEIAGVKELGVMGRGDHSAISTYISGEMVDSEISANIIDLCPVGALTSKPFRFKARSWELKQFPTLSAGDALATEINAHIYQNKLVRVVPRENDITGTWIADRDRFEYTGLYSQDRIQQPMIKKTGDWVDLSWEEALDFVKVAIQKTIEKDGADAISAIVSETATSEEMYLTKKLLAAVGSVNIDARVRQYADIPGISAGKGLSCSLEDIRESDFILVFGSNIRKEYPLVNIAIKDAVEKNAAKAVAWNVCDYNFNYDIKQVRLAADNIQYIALSLLKAIFVRANLPYGDLDEILRKVDPAAEVRDVADRIVAAKAPKIIIGQDIVNTSGFETVFSILDVLEKVTSVRGGVLATNVNSVAADRIFSSSKSKFSTYKCLNGRTNTKLLLTVHTELAKDSLYGEQKLRNALENIDIVVSFTAFADKFTKDTADIILPIATHYETSGSFVDLFGNRKEFKQVVKPYAGNKELWRVLRVLGNLLELEGFDYNSIAEVTNDAYATRARVGVNHVTQILNANLDYQKEVAFVASNSMYSTTSLLRRAEPLQKTTDAKRFAGVRISQELADEIGLKGQSGVIKIYNIDNEINPEVVVDPSLQAKNIMLPRALFKDFLSSDNISIKLVEEER | not soluble |
| MLYKIYSYLGWRIDMKTENLPQAGQEAQIDKKIHFIWVGHIMPQKNIQVVSEWAEKNPGYETIIWVDKKIAPAKELDLFILDMKSKGITVKDINEEGVCRDSIRHELDQESPNYGMVSDMLRLNILAAEGGIYLDSDILCSAPFPDEIYAPFGFLLSPWSQGANNTLCNDIILCSKGNQIIQQLADAIEQSYIARDSFEFTHEYASMKETKGERIAKTLGVTGPGFLFHQLKKMGILNDKSEMEAIHWELQDQRYLIDGSVKEPDYFYVPQNNTNDASWVPSIKRPGIENMSFQERLENAVQLIAFDIQKTGLFNLDHYANELKVKQNSWCIAAETSPELKPDSYLLIRPRDKTGEWTLYYVDEDKKLNPVTLPVIKGAIKLSEVSDPLRKFHTLLSQVSDPVNPTAHELKQIGRALIELKPRQDEWHCKNKWSGAEEIAQELWQRITSNETLRAQIKQCFTQFESLKPRVAELGLTRASGAGTEVEAHESTVKEQEIISQNTVGEEGTKEKNSVQLASENSSDEKIKTAHDLIDEIIQDVIQLDGKLGLLGGNTRQLEDGRVINIPNGAAMIFDDYKKYKQGELTAESALESMIKIAKLSNQLNRHTFFNQRQPETGQFYKKVAAIDLQTTIAAEYDNNHGLRILEHHHHHH | not soluble |
| MCMIVYFFFIHKPLAFYFIRLFHPHPFPVVLDHILLLISSLIGFKSQDSSFRHQNSDCQMNVFQVIIFLLSVLAVFSSADLSIDGESLVLSINEEGPIKVRRARETGEH | not soluble |
| MTNPTKPIPLNFDKPRRFMPPKHFADLSADERIDALKELGLPKFRANQIARHYYGRLEADPSTMTDLPAAAREKVKDALFPQLMQPVRAVQADDGETQKTLWKLHDGTLLESVLMRYPNRATLCISSQAGCGMACPFCATGQGGLDRNLSTGEIVDQVRAASATMQAEGGRLSNIVFMGMGEPLANYKRVVSAVRQITAPVPEGFGISQRNVTVSTVGLAPAIRKLADEDLSVTLAVSLHTPDDELRNTLVPTNNRWEVAEVLDAARYYADRSGRRVSIEYALIRDVNDQGWRADMLGKKLHKALGPLVHVNLIPLNPTPGSKWDASPMDRQKEFVQRVIAQGVTCTVRDTRGQEIAAACGQLAAEER | not soluble |
| MGSDKIHHHHHHMIIMTYYTFVKPFFIKAVTHLHVSSGTSVEEEVDLPFQRDELNYPTIFASSLKGAIKSFLLKEYSNAREIIYKVLGSDENPDEASLGSFLDAVLFAIPARSIGVSGLDEAWVYVTTYELLRKVKSLLESMNTLSATQFTSLLDAINNILQESKNLIISDNAASVILNEDFYVELSNIQNEYIQSLLGDMLIENSTYNQSNQNSQSQGNHLVKPLIVLKDSIGREVINRSLIRVRRIKIKRSSKTVEEGGLWSEEYVPVNSLFFSSFLARGSKDTAYFADCILRKTRYLILGGKETIGKGIVELRWLND | not soluble |
| MYDFKKINNLRGIERETLRVTDCGNLATSNHPDGLGHKLTNNSITVDFSENLLELITKPHDSIDKAIGELYQLSAFTLDNMHSDEIILNTSMPLSANDNDIQEADFGSSNSGRMKRVYRKGLSARYGKIMQIISGIHYNFSFDKDLISNIATNKQVSISDIYFDVLNNYFEFMWLLPYLFGASPICAKTSVKNKPDYLSVLDDKFYVGEYATSLRMSDLGYTSPAQKDLAISYDNVKAYVKDLIQATDDTFADYKRIGLYNSQGQRIQLNDGILQIENEYYSAIRPKQIAKRGERPACALYNRGVEYVEVRVLDVDPFEPVGISKDTALFVEVMLMTCLDKDAKKYHKDIIKQAKQNLTAVAIQGRNPQLKLKKLDDDSEILLKDYALELFDEIEAVAKKMPKEYLDAVEIQKRKVLDISQTPSAKIIELARQHGYKKFILDISRRVSQQFRSYELPAAIVAKLKDQAGQSVAAEKELVANDKISLDEYINRYYKSSKGCC | not soluble |
| MRFLHTADWQLGMTRHFLNGEAQPRYSASRREAVASLGEIAKRTGAEFVVVSGDVFEHNQLAPRDVSQSLEAMRAIGVPVYLLPGNHDPLDASSVYTSALFVAERPDNVVVLDRAGVHEVRPGVQIVAAPWRSKAPTSDLIGDVLADLPADGVTRVLVGHGGVDILDPDKNKPSLIRMAAVEDALARGAVHYVALGDKHSRTEVGGSGRVWYSGSPEVTNYDDIESDPGHVLVVDIDENDARRAVRVESEKVGRWRFVTLRRSVDTDRDIADLDLNLDLLDDKERTVVRLALTGSLTVTDKAKLDECLDRYARLFAALTTWERLEHHHHHH | not soluble |
| GMTRRIAICAPSTPFTREDSARVIALAAAEFPDLSLSFHEQCFASEGHFAGSDALRLSAFLECANDDAFEAVWFVRGGYGANRIAEDALARLGRAASAKQYLGYSDAGTLLAALYAHRIGRSVHAPMPVDIRRPEGESAVRRTLGWLAGAREGLEPTLGAGAPAVAFNLMTLAMLCGTRLLPDLSGHVVMIEEVAEHHYAVDRLLFHVTSCLADAGIAGLRLGRVSDVPENDRPFGCSVEEMARHWCHRAGIAFLGTADIGHDVDNRIVPFGLA | soluble |
| MEVIKITPRGYCYGVVDAMVIARNAALDPSLPRPIYILGMIVHNKHVTDAFAEEGIITLDGENRLEILEKIDHGTVIFTAHGVSPEVKKRALEKGLVTIDATCPDVTKTHRLIEQKLADGYDIIYIGKKGHPEPEGAVGINPERIHLVETIDDVERLSIHNERIMVTNQTTMSQWDVADIMAKVKEKYPHVEMHKEICLATQLRQEAVAEQAKEADVTIVVGDPRSNNSNRLAQVSEEIAGTKAYRVADVTEIDINWIKDAKKVAVTAGASTPTPITKEVIDFLEQFDPNDPSTWKRERKVPLQKILPKVKTKKEE | not soluble |
